Assay results from patent US20040038398A1.
Blank lines part the entries; values can stand above or below the substance they belong to.

Columns and labels:
[1] = biological target: CD2 antigen on human peripheral blood CD14+ myeloid cells / primary dendritic cells (and CD3+ T cells) (human) (UniProt P06729); test: cell-based or functional assay
[2] = biological target: CD2 antigen on human peripheral blood CD14+ myeloid cells / primary dendritic cells (and CD3+ T cells) (human) (UniProt P06729); test: flow cytometry, staining of enriched human CD14+ myeloid cells
[3] = biological target: CD2 antigen on human peripheral blood CD14+ myeloid cells / primary dendritic cells (and CD3+ T cells) (human) (UniProt P06729); test: flow cytometry, anti-T113 staining after 30 min pre-incubation with anti-T112, 4 C, Mg++/Ca++-free medium

UniProt P06729, sequence (P06729 25-351): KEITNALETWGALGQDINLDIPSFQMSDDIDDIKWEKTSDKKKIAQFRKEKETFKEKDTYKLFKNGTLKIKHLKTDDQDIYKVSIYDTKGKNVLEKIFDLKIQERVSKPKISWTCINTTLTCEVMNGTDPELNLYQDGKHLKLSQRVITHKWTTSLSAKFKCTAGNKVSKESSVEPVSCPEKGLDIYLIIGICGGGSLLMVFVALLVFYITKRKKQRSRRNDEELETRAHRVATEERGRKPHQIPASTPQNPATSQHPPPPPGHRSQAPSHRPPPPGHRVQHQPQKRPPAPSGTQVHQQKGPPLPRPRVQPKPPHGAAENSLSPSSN

IL-1β in DC/CHO-58 cocultures compared with DC/CHO-NEO [1]: 2 fold | IL-12 in DC/CHO-58 cocultures compared with DC/CHO-NEO [1]: 26 fold | level of HLA-DR on primary dendritic cells cocultured with CHO-58 [1]: > 2.5 fold
Substance: CD58 expressed on transfected CHO cells (CHO-58) (from UniProt P19256 29-250) (ligand)

percent of CD14+ Mx on which CD2 was identified [2]: 30% | IL-1β release, monocyte-derived dendritic cells against primary dendritic cells [1]: 75 fold | IL-12 release, monocyte-derived dendritic cells against primary dendritic cells [1]: 100 fold | allogeneic naive CD4 T cell proliferation induced by antibody-pulsed primary dendritic cells ([3H]thymidine) [1]: 2.5 fold
Substance: anti-T111 monoclonal antibody

percent of CD14+ Mx on which CD2 was identified [2]: 37%
Substance: anti-T112 monoclonal antibody

percent of CD14+ Mx that were CD2+ [3]: 20% | HLA-DQ level on primary dendritic cells (anti-T113 added to anti-T112-enriched cells) [1]: 9 fold | HLA-DR level on primary dendritic cells (anti-T113 added to anti-T112-enriched cells) [1]: 2 fold | [Ca++]i in CD3+ T cells above baseline (anti-T112 and anti-T113 cross-linked with goat anti-mouse IgG) [1]: 180% | high expressing CD86 population of primary dendritic cells (anti-T112/3 pair) [1]: 65% | increase in [Ca++]i in CD14+ Mx (anti-T113 added after anti-T112) [1]: 69% | increase in [Ca++]i in CD14+ Mx above baseline (anti-T112 and anti-T113 cross-linked with goat anti-mouse IgG) [1]: 95% | level of CD40 on primary dendritic cells (anti-T112/3 pair) [1]: 2 fold | level of CD54 on primary dendritic cells (baseline 14%) [1]: 9 fold | level of CD80 on primary dendritic cells (anti-T112/3 pair) [1]: 3 fold | levels of HLA-DR and HLA-DQ on primary dendritic cells (anti-T112/3 pair against control) [1]: 2 to 3 fold
Substance: anti-T113 monoclonal antibody
CD50 MFI of primary dendritic cells, after CD2 engagement [1]: 90 MFI | CD50 MFI of primary dendritic cells, control [1]: 148 MFI | MFI of CD50^hi (so in the source) primary dendritic cells [1]: 53% | percent CD50^hi of primary dendritic cells, after CD2 engagement [1]: 76% | percent CD50^hi of primary dendritic cells, control [1]: 96% | percentage of CD50^hi (so in the source) of primary dendritic cells [1]: 21%
